Measured values reported in the supplement of paper PMC9170038.

Tested on: K4 kissing-loop RNA reporter
Experiment: apparent KD of K4 kissing-loop reporter; higher = weaker reporter binding
Conditions: Eterna round: R107
Protocol: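 RNA-MaP round R107: designed RNA switches with theophylline, tryptophan, arginine or FMN aptamers are transcribed on-chip within common flanks. They are titrated with a labelled K4 kissing-loop RNA reporter in RNA-MaP buffer (100 mM Tris pH 7.5, 80 mM KCl, 4 mM MgCl2), without ligand or with the indicated ligand. Median apparent KD per design.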

[1] = input ligand: theophylline 20 uM
[2] = input ligand: tryptophan 2.4 mM
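Note: bound reporter read as fluorescence of individual clusters on recovered sequencing chips by microscopy, with normalized cluster intensities fitted with a binding model.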

Sequence | apparent KD of K4 kissing-loop reporter (input ligand: FMN 200 uM) | apparent KD of K4 kissing-loop reporter (input ligand: arginine 13.2 mM) | apparent KD of K4 kissing-loop reporter (input ligand: none) | apparent KD of K4 kissing-loop reporter [1] | apparent KD of K4 kissing-loop reporter [2]
AAGUUGAACUGAAGGAGCGAGAAAUAGAAUGUAAGAAUAUAUGCUAGUGAUGUUAGAAAUUCUCAGGUAGGUCGCAGUAAGUUUU [V2] | 363 nM | 418 nM | 474 nM | 407 nM | 285 nM
AUGGUUGUCGUAGGAUAUGUAGGUAAUUCCUAUAGCAGUGAUGUUGCUAAUAUCUUGGAAGAAGGAACAGAAGGACGAUAACCAC [KL-SSFMN-B1 #analogue] | 123 nM | 109 nM | 124 nM | 109 nM | 106 nM
UUAGUUGAAAGUGAUACCAGACGAGUGAAGGGAAGAAAUUAAGUUGGAGUGAUGUUCCGCGUCCCUUGGCAGCACUUUGUAAUUU [Exclusion Theophylline B GF 22] | 135 nM | 151 nM | 125 nM | 161 nM | 121 nM
AAAUUUAUUAUAUUUGAAUAAAUAUGUGAUACCAGACAUUUAUAAGUCCCUUGGCAGCACAAUGCAGUGAUGUUGCUUAUAAUAA [JR_SSTheophyA_Sub018] | 89 nM | 110 nM | 93 nM | 182 nM | 73.8 nM
AGAUUCGACACGGCCGCCACUUGUGGUGGAUUAUCCUAUGUAAGACAUGAGUGAUGUUCAUGUACAAGGACCGGGUGUUGAGUCU [KL-XTryp-B4 #analogue] | 215 nM | 177 nM | 199 nM | 193 nM | 425 nM
GUGGCACGAAAGUGCCACGCAUCCUCUCCCUAGGAUAUCUGGAAACAGAGAAGGAGGUCAUGAGUGAUGUUCAUCCAGAGGAUGC | 258 nM | 677 nM | 756 nM | 738 nM | 491 nM
AGCCGAAAGGCGAGUGCUGUCACUCCGGAAGGAGCGCCCAAAAGGGCAGGUAGGUCGCCGGAGUGAUGUUCCGGUGCAGCACUCA [Omei KL Arginine A Exc B v3] | 572 nM | 497 nM | 784 nM | 533 nM | 482 nM
GUAGGAUGAGGAGGAGGAUGAAUUACUGAAGGAGCGCAUAUAAAUGCAGGUAGGUCGCGGUAAAGAAGUAUAGUGAUGUUAUAUA [SSArgA.G] | 421 nM | 636 nM | 580 nM | 438 nM | 329 nM
GGAUCCACCAGUGAUGUUGGAGAAAACUUCAAGGAUAUGACGAAAGUCAGAAGGUGGUAGACUGGACAAAGUCCGGUGGGAUCCA [FmnA10 U29+G78] | 622 nM | 214 nM | 264 nM | 566 nM | 198 nM
UCGGCGUACGGGCGGGUAGUGAUGUUGCUCCGAGGACCGGUACGGCCGCCACUCGAGGUACCAGUUCAUAGAACCUGGCACAUCA [theeternabot_exclusion_KL_Trp_A_23] | 409 nM | 296 nM | 541 nM | 261 nM | 266 nM
AGAGUUAUGCGAGGAUAUGCGGUUAGUACUCAAAGAGUACUAACGCAGAGUGAUGUUCUGUGAAACGCAGAAGGUGCAUAACUCA [Omei KL FMN B SS B v3] | 153 nM | 216 nM | 280 nM | 238 nM | 229 nM
UUUUAAAUGUCUGAUACCAGAGAAAAUUUAUGUAGUGAUGUUAUAUACAAAAUAAAUAAGCUCCCUUGGCAGCAGUAUUAAUUUU [AstrosExc-TheB#7] | 465 nM | 449 nM | 465 nM | 357 nM | 442 nM
GCAGUGAUGUUGCGAAUCGGCCAUGAUGCAGAGGAUAUCGUGCCUUCGAGAAGGUUGUAUAGAGGAUACGAUACUAUUAAUGACG [Same State FMN A GF 6] | 395 nM | 356 nM | 714 nM | 413 nM | 329 nM
AUAGGAGUGAUGUUCCUUAGUUUCUCCGAUACCAGUAUGGAAACAUACCCUUGGCAGCGGGAAACCGCUGAUUAGGAAACUAGUC [Theophylline A K4 7] | 256 nM | 271 nM | 282 nM | 242 nM | 223 nM
GCCGUAGAUGGAAGGAGCGUGGUGGACUCGUGAAGUGAUGUUUCAAGUCGAUAUGCCCAACCACAGGUAGGUCGCCAUCUACGGC | 206 nM | 161 nM | 169 nM | 198 nM | 174 nM
UGUCAUGGAAACAUGAACGUUGAUGUUCGACGAGGACCGGUACGGCCGCCACUCGAGUAAUAGUCAGUGAUGUUGACUGGGCUAA [KL-SSTryp-A form1 sub2] | 146 nM | 216 nM | 219 nM | 250 nM | 140 nM
AAACAUUGGUCGGAUACCAGCUGAUCGGAAACGAUCUUGCUGGAGUGAUGUUCCAAGUAAAGCCCUUGGCAGCCGACCGAUGAAA [MAT - Same State Theophlline B - Mod of Eli - D20] | 140 nM | 50.4 nM | 63.2 nM | 135 nM | 85.8 nM
AGUGGUGUAUCUUUUAAGAGUGAUGUUUUUCGAGGACCGGUACGGCCGCCACUCGAGUGAUGAGAGCGUCGUUGUGGUGAUUAGU [#15 K4 Tryptophan A Exclusion] | 814 nM | 582 nM | 877 nM | 860 nM | 479 nM
AAGUGUCAUUAGACACAGACUACAAUACGCUAGGAUAUGCUGAUAAGCAGAAGGAGUGAUGUUCCUUUCAAGUAGUCAAUUAAAU [FmnAX 22 Mat Inspired #SwitchBubble #StaticStem #K4Late] | 319 nM | 140 nM | 136 nM | 166 nM | 124 nM
GGUAGCAUGGCGGCCGCCACUAACAACCUCACCUGCGGCUCGAUCGAGUGAUGUUCGAACGCAAUUAGGACCGGGCCAUGCUACC | 243 nM | 64.8 nM | 141 nM | 143 nM | 122 nM
ACUUUGGGCCCAGUGAUGUUGGGUCCAGAUACCAGACGUAAAUAAGUCCCUUGGCAGCUGCGUACUAACUAGCACAGGAGGGUCC [Edleaes] | 135 nM | 143 nM | 150 nM | 154 nM | 141 nM
